assay: protease stability score; higher = more stable; yeast display proteolysis, trypsin and chymotrypsin;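 further: log10 excess protease needed over predicted unfolded state with 0 meaning unfolded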

Sequence | protease stability score
DDEERAHEIFKKYQHVLKSNDEDKDRELMDPNARLHIGDKQYHGREQVTKYWHEVLTHADHLEANLKDFRVKGESINIVYTFRQNEDGRDSQVIIEMVMKRQGDHYTVTDNTQK | -0.044
DDEERHKDAQKAMHLYQRGNPDEMDRLMDPNVKVRVGDETYHGREQANRAFKKIRDRVDHINVKSVSVHGNRINIVAEVNINGRNDILRVIIDYHNGRARRVIITHK | 0.204
DDEERRKLADDLIKILQTGSSNDVRKLVDPNAKAHYGEKDFHGERELAKFMKEIADNVDHIEIETMEVHGDRVKIVMVIVHNGKQRRFVMVLVVHNGRIKKASQTSQ | 1.46
DDEESEKFAEDAMRILQTGDEEKFVRQADPNARVVYGEKTVHGREEAKKEVKTFRDRVDKIDVHHVEVTNGKAFLDATFRFDGRDRHYVVEIVRHNGRIKQMVMKKK | -0.166
DDEETAKRHQREWQKNLEFNDEKSIQELVDPNARWQIGDKEVHGREEWARQLRRLREDVDHVQIHVKHVEVSNGQYNLNILIKYNINGETHKIRLVYVAQKNNGRVLVRSVEHK | 0.655
DDEFLKKVVEVIRHGDEERLVRNFDENARMRIGDKVFHGREEIKKALHRIREHADHIDVESVDQQGDTLDADVFIEVNGKNWVFKLKVTVHNGRIKEVSWHVRDEDADNIMKEIMS | 1.8
DDEHANSMADQLQKAFETGDEDQIRRLMDKDVSINYGDKRIKGSRELAHWVATLRRQVDSIEYKSIHVKGDKVDIDVVVNVNGRNARFTLVARFSNGKFKELRVDPENMKRLKS | 1.47
DDEHFDHLRKVLKTGDFERLNQLMDPNASADIGDKRYHGRESLEEMFRKLHTQIDHIEFKSMDLQGNKLKYTLVMTFNGREVTVTVVVEVQNGHIKRISIQARNESDREKLKHALD | 1.46
DDEHIKEFLQVVRRGDPDKILKMIDPNAHLQVGDKDLHGRDAVKKAQDKLETTVDHFEVEEVHFQGDNVVVTYLLNVNGKSITVQLVANIEDGRIKSMRIEARSEEDHKILNEQQG | 0.693
DDEHVRRLAEQLFKAMQSGDPDTVESLFDKNARVQIGDKSVSGHEDISKIFHDNWKRVDEFQLRTYDAHNGRVQLRFELHINGRRADITLSIEFRNGKIQEAVFEFRDESVRQQFRT | 1.29
DDEIERTMKNLMEAFSEGDPDKFRRNADPNAKMNVGDKSFHGMDDFLHQLKQLNKQARIEIEHITVTAQGDHAEVHAQFVNTENGRPRTKRVVYRAEVRNGQAKSIKLEDTK | 0.176
DDEIRRQVHRYLRALQRNDEKLASDLLDPNAKFVYGDKTVHGREQHKKELRKMKDQWEFSVDVKKVKVQGNKIKVTADIRVDVNGRPMSHRYVVIFHAHNGKIKNAEFRMDEKYYRDVKR | 0.208
DDEIWSQIEHLLEIFKTGDEERYREQVDPNAKADVGDKKIHGRERIARHLYHLAKNMTIKREVDSVNIQGNEVSASFEVTVNINGNPIRFTVRVNYNFHNGRLQTFEIDVSEDLTKHMDS | 1.9
DDEKAKEMMKVWKSGDEEDLVRLADENVSVVVGDHRVRGREEFKKWLHRLSEQVDRWKVDSVHAHNGRIQIDAVYVVNGQEFRLTIHVTMRNGRIKTVRAQVTTEDDERKLKKVVS | 0.63
DDEKARQQVREFIRAMETGDEDSMVQQLDENAHVHIGDHVWRGREQARNAFKEFVKQFDRIEVKRVEYRNGDVVIDAVANVNGVRVRIIFKIHIHNGRIKNLRIEYRDEEEKKQLDG | 1.99
DDEKARRWLHTMRDVINRGDPDKWRKLVDENVRLEIGDKEYHGREDARKWMKELRDQVDEIHIKTISAHGDKIEVTMEYKHNGRTRRITVVARIRDGRIKMVQVRDS | 1.8
DDEKKAKSFVDDLRKILKTGDPEQMRDNADKDARLVIGDQTFHGREDAASKLVTLVKRFDHARFNVKSMTMHNGRIDVDMTFTLRVDGKNERHRVKITVEEHNGRLKMKEVHWS | 0.991
DDEKKARTLLKQLKEAFENNDEDRARQLMDKDVRLDIGDKTYHGREEAAEAWHRLVETVDHMDMKVRHIENRNGHMVVNADMVLHRDGRQKRLKVTFTARDDNGHAVLVHVSFD | 1.45

Sequence | protease stability score
DDEKLANEFQTKFRSVMETNDEENMRKLADKDARLNVGDDDVHGREQVARYLAEVLRRVDTFRVRYEDVDIRNGQVRVTMEIHNNHNGSDRTDRVHLQMEVTGDTASLKRITEG | 0.259
DDEKLAREFQEKLREALRSGDDKKMVELMDKDARVVVGDKEIQGREEIAKTWATKATQADHVEVHIRNLRVENGRVTVNVEVRLNNNGQDRTNNNTLQNEVHNGHIHMKRQKEN | -0.274
DDEKLTTVLKELMKAFEKGDNKKFVDLLDKDVTIDYGDKKVHGRDEATEVFHKIRRQVDHVQVSDMKFENGRASIRATLHFNGKNMEVTFEAVIKNGRIKHAQVEVRDPDELRKMES | 1.03
DDEKQAHRAFEEWERALRTGNEEDLKRLADENVQVQVGDKQLDGREEVVKWMLDQAERVDHIQIDIKHLRIQNGRVEVNIIIQNNHNGQNQTHTMVVVMRNHNGNLYISDVQRR | 1.31
DDEKQHTIAKQLVEVLQQNDPDQQRDMVDENANIDIGDKTYQGQEDARKAMDELRRQIDHLTVTSFNVHNGRVEIRARARVNGTDVTVHIEAQLHNGRVKKMKIKYG | -0.196
DDEKQVREVVTDFIQALEEGDEKRVRQLIDPNASADVGDRKYHGREQVAEMVREQMDQVDHIEFTLRKVEIQGEEVVVRVEVVLNHNGQEKQIHMTLIFVVKNGHLQLKEIHQD | 1.37
DDEKRASKFAKKLVDAFKHGDPDRFSRMVDENVRFQVGDTQYHGREDAHNLMQELRDKVDHIHVRLTQLEVKGDKADVHMNLQYKHNGKNNDVRMRAVATDNNGRLLVTHFRIN | 1.26
DDEKREKILKTFVDLFMNGDEEDIQRMMDENARASVGDKTYHGQEQVNKALKEIRDQFDRVEVKHIHVSGDKFRINMVINVNGKHVHVEVEISVHNGRIHEISFDPEHLTKMRN | 0.444
DDEKRKDILRKIKENWKRNDHDFFKDMADPNVRAKVGDKLLHGREELEKELREFKKRADHVEIKHVDVTGDNAEVEADIDINGQKRVMVFQVEVHNGKIKHIELDPDDQRKVQK | 0.145
DDEKTRDLLRKAMRAFITGDPDTLRHLFDKDARARYGDKEVRGREQIQHQLREIRSTVDHIDVKDMEVQGNHATLSLSLVVNGREVKVRVKIVVHNGRAQSVTMDPHDIRKLNS | 1.29
DDEKVAEQIMNEVLTAIKNNDPQEAADNMDKDARAEVGDNDLTGRERLSKWWVTMANRADHITAHVDSVDEQGDKIHVVWKYTADINGQQVSKDIKFVVVRQNGRVKIKRIKND | 1.11
DDEKVKSFMKNVVRAWKHNNPDEMAKLADPNARAHVGDKEVHGRHQVKTMITEQLTRVDHVDIRHVHANGDKITIHATLNVNGRTRSVKIEIRFDNGKITDIRMDPDAVKEIKK | 0.199
DDEKVQKAAHNLIQAIKSGDEDRMRKLMDPNVRVVVGDKEVSGSDDAARFLRELRERVDHVEVKRVEAHNGRIKIDAVNRHNGHDHRFVLEAEVHNGTVKQIRIKEQ | 1.43
DDELEEQVKKWLENLKNNNEEELQKQMDPNAKMQYGDKEYHGMHDALKTLAQEDRELRYNVRIISINVQGDRVHITRRINRDHDGRPSQKKYKLNLRLHNGRNQHFREQEDG | -0.102
DDELEKLITRWLEALDTNNPRQVKSNIDPNVHIEIGDKKIHGREQAMKDIHHRLERMRVEFDLKSLDSHGERASFRFRLHIRFNGRPIDIDAEVSVQVHNGKFKKMSQRISEEQAKQMSE | 0.403
DDELHKLAEEFVTALQKGDPDRANSLFDPNAKFVVGDEVLHGREDFEKWLDELKHQMRIQFESVKIDKRPGRIIIDNVFRVHVNGKPDQIRIEIDIQVHNGKIKEVIYRMDPDKFREVMS | 1.3
DDELKRIVHQLMEALKHGDNDQWRKNVDPNVSVKIGDKELHGREEFARQIQRIKRELHLEIDIHDVKVKNGRADLDMTETRSENGQPETNRLRISYVIDNGKFKSVTLNIKQ | 0.222
DDELQHQVERFLTNIEHGDPDKIQRQVDKDVNARVGDETLHGSDQLKDTWHDTQRQMRFSFHVTKYDAREGHVDITAHITMDRNGKPESRQVRVRFNINNGKLREVDMQLRG | 1.04

Source: the NTF2 design screens of Basanta et al. (2020)
